Tests used:
[1] = molecular target: recombinant human OX40 (Acro Biosystems, cat. no. OXO-H5224) (human) (UniProt P43489); test: BLI cross-block; competitor (immobilized 1st Ab): IgG1-CD134-MEDI0562
[2] = molecular target: human OX40, cell surface-expressed (human) (UniProt P43489); test: flow cytometry, activated CD4+ T cells, mean of 3 donors
[3] = molecular target: human OX40, cell surface-expressed (human) (UniProt P43489); test: flow cytometry, HEK293F cells with human OX40
[4] = molecular target: recombinant human OX40 (Acro Biosystems, cat. no. OXO-H5224) (human) (UniProt P43489); test: BLI cross-block; competitor (immobilized 1st Ab): IgG1-CD134-h3C8
[5] = molecular target: human OX40, cell surface-expressed (human) (UniProt P43489); test: flow cytometry, activated CD8+ T cells, mean of 3 donors
[6] = molecular target: recombinant human OX40 (Acro Biosystems, cat. no. OXO-H5224) (human) (UniProt P43489); test: BLI cross-block; competitor (immobilized 1st Ab): IgG1-CD134-RG7888
[7] = molecular target: recombinant human OX40 (Acro Biosystems, cat. no. OXO-H5224) (human) (UniProt P43489); test: BLI cross-block; competitor (immobilized 1st Ab): IgG1-CD134-11D4
[8] = molecular target: human OX40, cell surface-expressed (human) (UniProt P43489); test: flow cytometry, activated CD8+ T cells, donor 2
[9] = molecular target: human OX40, cell surface-expressed (human) (UniProt P43489); test: flow cytometry, ExpiCHO-S cells with human OX40
[10] = molecular target: recombinant human OX40 (Acro Biosystems, cat. no. OXO-H5224) (human) (UniProt P43489); test: BLI cross-block; competitor (immobilized 1st Ab): IgG1-CD134-IBI101
[11] = molecular target: human OX40 with mouse CRD1 (human with mouse CRD1) (UniProt P43489); test: flow cytometry, ExpiCHO-S cells with human OX40 carrying mouse CRD1
Chain of human OX40 with mouse CRD1 (human with mouse CRD1) (P43489 other isoform, or with tags, fused parts or gaps limits assumed): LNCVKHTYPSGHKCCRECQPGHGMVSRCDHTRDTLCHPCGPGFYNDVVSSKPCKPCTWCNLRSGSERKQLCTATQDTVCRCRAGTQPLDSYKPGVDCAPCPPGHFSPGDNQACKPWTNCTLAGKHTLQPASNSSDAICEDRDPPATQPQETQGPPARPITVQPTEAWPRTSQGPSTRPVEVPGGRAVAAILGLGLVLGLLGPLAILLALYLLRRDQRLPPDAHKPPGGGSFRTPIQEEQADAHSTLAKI

[12] = molecular target: recombinant human OX40 (Acro Biosystems, cat. no. OXO-H5224) (human) (UniProt P43489); test: BLI cross-block; competitor (immobilized 1st Ab): IgG1-CD134-012
[13] = molecular target: recombinant human OX40 (Acro Biosystems, cat. no. OXO-H5224) (human) (UniProt P43489); test: BLI cross-block; competitor (immobilized 1st Ab): IgG1-CD134-49B4-RRE
[14] = molecular target: human OX40, cell surface-expressed (human) (UniProt P43489); test: flow cytometry, activated CD8+ T cells, donor 3
[15] = molecular target: recombinant human OX40 (Acro Biosystems, cat. no. OXO-H5224) (human) (UniProt P43489); test: BLI cross-block; competitor (immobilized 1st Ab): IgG1-CD134-A4453
[16] = molecular target: human OX40 with mouse CRD4 (human with mouse CRD4) (UniProt P43489); test: flow cytometry, ExpiCHO-S cells with human OX40 carrying mouse CRD4
Chain of human OX40 with mouse CRD4 (human with mouse CRD4) (P43489 other isoform, or with tags, fused parts or gaps limits assumed): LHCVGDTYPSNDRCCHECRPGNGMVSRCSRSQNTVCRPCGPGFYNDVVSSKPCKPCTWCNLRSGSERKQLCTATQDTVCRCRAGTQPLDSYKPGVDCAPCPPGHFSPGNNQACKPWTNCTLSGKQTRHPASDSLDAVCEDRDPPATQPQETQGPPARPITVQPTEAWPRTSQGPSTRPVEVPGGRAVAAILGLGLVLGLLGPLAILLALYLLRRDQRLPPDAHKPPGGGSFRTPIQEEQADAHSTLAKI

[17] = molecular target: recombinant human OX40 (Acro Biosystems, cat. no. OXO-H5224) (human) (UniProt P43489); test: BLI cross-block; competitor (immobilized 1st Ab): IgG1-CD134-INCAGN1949
[18] = molecular target: recombinant cynomolgus monkey OX40 (Acro Biosystems, cat. no. OXO-C5220) (cynomolgus monkey); test: BLI, Ab on AHC sensor, OX40 analyte
Chain of recombinant cynomolgus monkey OX40 (Acro Biosystems, cat. no. OXO-C5220) (cynomolgus monkey) (P43489 other isoform, or with tags, fused parts or gaps limits assumed): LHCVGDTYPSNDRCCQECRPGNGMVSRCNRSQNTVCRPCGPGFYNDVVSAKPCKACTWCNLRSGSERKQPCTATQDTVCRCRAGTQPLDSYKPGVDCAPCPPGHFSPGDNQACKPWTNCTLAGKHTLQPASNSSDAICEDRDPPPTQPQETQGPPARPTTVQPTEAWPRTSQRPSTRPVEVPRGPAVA

[19] = molecular target: recombinant human OX40 (Acro Biosystems, cat. no. OXO-H5224) (human) (UniProt P43489); test: BLI, Ab on AHC sensor, OX40 analyte
[20] = molecular target: recombinant human OX40 (Acro Biosystems, cat. no. OXO-H5224) (human) (UniProt P43489); test: BLI cross-block; competitor (immobilized 1st Ab): IgG1-CD134-003-HC6LC2-RR
[21] = molecular target: human OX40, cell surface-expressed (human) (UniProt P43489); test: flow cytometry, activated CD4+ T cells, donor 2
[22] = molecular target: human OX40, cell surface-expressed (human) (UniProt P43489); test: flow cytometry, activated CD4+ T cells, donor 1
[23] = molecular target: recombinant human OX40 (Acro Biosystems, cat. no. OXO-H5224) (human) (UniProt P43489); test: BLI cross-block; competitor (immobilized 1st Ab): IgG1-CD134-GBR830
[24] = molecular target: human OX40, cell surface-expressed (human) (UniProt P43489); test: flow cytometry, activated CD8+ T cells, donor 1
[25] = molecular target: human OX40, cell surface-expressed (human) (UniProt P43489); test: flow cytometry, activated CD4+ T cells, donor 3
[26] = molecular target: human OX40 with mouse CRD2 (human with mouse CRD2) (UniProt P43489); test: flow cytometry, ExpiCHO-S cells with human OX40 carrying mouse CRD2
Chain of human OX40 with mouse CRD2 (human with mouse CRD2) (P43489 other isoform, or with tags, fused parts or gaps limits assumed): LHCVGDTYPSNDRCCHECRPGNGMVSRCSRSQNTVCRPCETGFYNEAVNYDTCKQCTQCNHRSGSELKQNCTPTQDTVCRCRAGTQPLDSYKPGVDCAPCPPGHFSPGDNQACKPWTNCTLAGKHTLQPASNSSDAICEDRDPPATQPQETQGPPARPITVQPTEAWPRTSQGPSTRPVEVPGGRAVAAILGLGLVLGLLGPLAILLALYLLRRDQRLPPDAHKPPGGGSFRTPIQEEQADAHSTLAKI

[27] = molecular target: recombinant human OX40 (Acro Biosystems, cat. no. OXO-H5224) (human) (UniProt P43489); test: BLI cross-block; competitor (immobilized 1st Ab): IgG1-CD134-ABBV368
[28] = molecular target: recombinant human OX40 (Acro Biosystems, cat. no. OXO-H5224) (human) (UniProt P43489); test: BLI cross-block; competitor (immobilized 1st Ab): IgG1-CD134-SF2
[29] = molecular target: recombinant human OX40 (Acro Biosystems, cat. no. OXO-H5224) (human) (UniProt P43489); test: BLI cross-block; competitor (immobilized 1st Ab): IgG1-CD134-003
[30] = molecular target: recombinant human OX40 (Acro Biosystems, cat. no. OXO-H5224) (human) (UniProt P43489); test: BLI cross-block; competitor (immobilized 1st Ab): IgG1-CD134-Hu106
[31] = molecular target: cynomolgus monkey OX40, cell surface-expressed (cynomolgus monkey); test: flow cytometry, HEK293F cells with cynomolgus monkey OX40
Chain of cynomolgus monkey OX40, cell surface-expressed (cynomolgus monkey) (P43489 other isoform, or with tags, fused parts or gaps limits assumed): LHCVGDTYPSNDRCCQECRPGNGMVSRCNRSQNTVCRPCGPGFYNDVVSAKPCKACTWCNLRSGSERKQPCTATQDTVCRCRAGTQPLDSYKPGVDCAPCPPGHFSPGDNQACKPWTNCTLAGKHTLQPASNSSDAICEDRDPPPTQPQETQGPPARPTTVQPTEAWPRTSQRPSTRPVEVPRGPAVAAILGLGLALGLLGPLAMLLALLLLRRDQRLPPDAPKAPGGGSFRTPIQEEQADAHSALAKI

[32] = molecular target: recombinant human OX40 (Acro Biosystems, cat. no. OXO-H5224) (human) (UniProt P43489); test: BLI cross-block; competitor (immobilized 1st Ab): IgG1-CD134-007

Chain of human OX40, cell surface-expressed (human) (P43489 29-277): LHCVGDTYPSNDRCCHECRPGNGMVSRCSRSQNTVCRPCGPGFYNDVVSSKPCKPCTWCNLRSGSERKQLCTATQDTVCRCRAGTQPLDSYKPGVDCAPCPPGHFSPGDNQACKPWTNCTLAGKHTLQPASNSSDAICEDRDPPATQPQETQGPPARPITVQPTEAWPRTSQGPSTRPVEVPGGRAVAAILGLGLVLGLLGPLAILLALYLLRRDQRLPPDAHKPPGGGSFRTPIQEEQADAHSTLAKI
Chain of recombinant human OX40 (Acro Biosystems, cat. no. OXO-H5224) (human) (P43489 29-216 limits assumed): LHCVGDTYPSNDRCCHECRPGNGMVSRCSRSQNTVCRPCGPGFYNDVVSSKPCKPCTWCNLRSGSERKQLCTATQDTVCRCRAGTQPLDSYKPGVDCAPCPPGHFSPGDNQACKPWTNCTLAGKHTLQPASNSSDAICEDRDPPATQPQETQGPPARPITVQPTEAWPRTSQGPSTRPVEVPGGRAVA

B1: IgG1-CD134-RG7888 (antibody, INN chains, looked up, V domains shown)
VH: EVQLVQSGAEVKKPGASVKVSCKASGYTFTDSYMSWVRQAPGQGLEWIGDMYPDNGDSSYNQKFRERVTITRDTSTSTAYLELSSLRSEDTAVYYCVLAPRWYFSVWGQGTLVTVSS
VL: DIQMTQSPSSLSASVGDRVTITCRASQDISNYLNWYQQKPGKAPKLLIYYTSRLRSGVPSRFSGSGSGTDFTLTISSLQPEDFATYYCQQGHTLPPTFGQGTKVEIK
modifications: IgG1
- corrected association response [1]: 0.02 nm
- EC50 [2]: 0.0354 µg/mL
- EC50 (read off the curve) [3]: 0.05 µg/mL
- corrected association response [4]: 0.41 nm
- EC50 [5]: 0.0451 µg/mL
- corrected association response [6]: 0.02 nm
- corrected association response [7]: 0.11 nm
- EC50 [8]: 0.0332 µg/mL
- EC50 (read off the curve) [9]: 0.007 µg/mL
- corrected association response [10]: 0.23 nm
- EC50 (read off the curve) [11]: 0.02 µg/mL
- corrected association response [12]: 0.54 nm
- corrected association response [13]: 0.02 nm
- EC50 [14]: 0.0393 µg/mL
- corrected association response [15]: 0.47 nm
- EC50 (read off the curve) [16]: 0.01 µg/mL
- corrected association response [17]: 0.02 nm
- Kd [18]: 0.61 nM
- koff [18]: 0.00014 s⁻¹
- kon [18]: 240000 M⁻¹ s⁻¹
- Kd [19]: 0.23 nM
- koff [19]: 8.4e-05 s⁻¹
- kon [19]: 360000 M⁻¹ s⁻¹
- corrected association response [20]: 1.38 nm
- EC50 [21]: 0.0292 µg/mL
- EC50 [22]: 0.0453 µg/mL
- corrected association response [23]: 0.26 nm
- EC50 [24]: 0.0627 µg/mL
- EC50 [25]: 0.0316 µg/mL
- EC50 (read off the curve) [26]: 0.01 µg/mL
- corrected association response [27]: 0.01 nm
- corrected association response [28]: 0.01 nm
- corrected association response [29]: 0.66 nm
- corrected association response [30]: 0.1 nm
- EC50 (read off the curve) [31]: 0.05 µg/mL
- corrected association response [32]: 0.47 nm

— patent publication US20240376221A1
